Data: patent EP4696714A1, “PREPARATION METHOD FOR NANOBODY TARGETING TISSUE FACTOR AND CONJUGATE AND USE THEREOF” (Fudan University, priority 2023, dated 2024)
Read-outs that look alike come from different tables or passages of the source.

Key:
[1] = target: T1, TF on the surface of tumor cells (MDA-MB-231, HPAF-II, HCC1806, BxPC3, HCC44, PC9, H1975 and other … (UniProt P13726 33-295, limits assumed)); assay: cell-based or functional assay
[2] = target: T1, TF on the surface of tumor cells …; assay: cell-based or functional assay; remark: listed apart in the source
[3] = target: T1, TF on the surface of tumor cells …; assay: flow cytometry on MDA-MB-231 cells, PE-labeled secondary antibody
[4] = target: T2, human TF extracellular domain protein (TF-ECD, Met 1-Glu 251) (human, UniProt P13726 33-251); assay: ForteBio OCTET R2; His-tagged antigen on NTA sensor, nanobody-Fc 25-1.56 nM in solution, 25°C
T2 construct: range 1-251; also called human TF-ECD; not shown: His tag (protein captured on an NTA sensor as 'FDYKSD-01-His')

Cell proliferation inhibition IC50, BxPC3 cells (MTS) [1] | Cell proliferation inhibition IC50, H1975 cells (MTS) [1] | Cell proliferation inhibition IC50, HCC44 cells (MTS) [1] | Cell proliferation inhibition IC50, HPAF-II cells (MTS) [1] | Cell proliferation inhibition IC50, PC9 cells (MTS) [1] | Cell proliferation inhibition IC50, BxPC3 cells (MTS) [2] | Cell proliferation inhibition IC50, HCC1806 cells (MTS) [2] | Cell proliferation inhibition IC50, HPAF-II cells (MTS) [2] | EC50 [3] | Kd [4] | Binder
0.8 ng/mL | 2.2 ng/mL | 2.2 ng/mL | 0.2 ng/mL | 0.4 ng/mL | 0.1 ng/mL | 0.1 ng/mL | 0.7 ng/mL | – | – | 4-A02-FC1-MMAE (4-A02-FC1 coupled to mc-vc-MMAE) (Fc fusion, mc-vc-MMAE coupled to cysteine thiols after TCEP reduction; target DAR 4 for the dimer (about 95% DAR4 by HIC); positions not given) QVQLVESGGGLVQPGGSLSLSCTASETISSTYIMGWHRRSPGKERELVAVISGDGVTHYADFVKGRFVISRDNAKNAVYLKMNFLTPEDTAVYYCYAAGRWNHWGQGTQVTVSSEPKSSDKTHTCPPCPAPEFEGGPSVFLFPPKPKDTLMISRTPEVTCVVVDVSHEDPEVKFNWYVDGVEVHNAKTKPREEQYNSTYRVVSVLTVLHQDWLNGKEYKCKVSNKALPASIEKTISKAKGQPREPQVYTLPPSRDELTKNQVSLTCLVKGFYPSDIAVEWESNGQPENNYKTTPPVLDSDGSFFLYSKLTVDKSRWQQGNVFSCSVMHEALHNHYTQKSLSLSPGK
– | – | – | – | – | – | – | – | 80 ng/mL | 2.09 nM | 4-A02-FC1 (chimeric nanobody: 4-A02 VHH fused with human Fc mutant fragment FC1) (Fc fusion, VHH-Fc fusion expressed in HEK293; also called chimeric antibody 4-A02) QVQLVESGGGLVQPGGSLSLSCTASETISSTYIMGWHRRSPGKERELVAVISGDGVTHYADFVKGRFVISRDNAKNAVYLKMNFLTPEDTAVYYCYAAGRWNHWGQGTQVTVSSEPKSSDKTHTCPPCPAPEFEGGPSVFLFPPKPKDTLMISRTPEVTCVVVDVSHEDPEVKFNWYVDGVEVHNAKTKPREEQYNSTYRVVSVLTVLHQDWLNGKEYKCKVSNKALPASIEKTISKAKGQPREPQVYTLPPSRDELTKNQVSLTCLVKGFYPSDIAVEWESNGQPENNYKTTPPVLDSDGSFFLYSKLTVDKSRWQQGNVFSCSVMHEALHNHYTQKSLSLSPGK
2.5 ng/mL | > 15000 ng/mL | 19.1 ng/mL | 2.4 ng/mL | 5630 ng/mL | – | – | – | – | – | 4-A02-FC1-DXd (4-A02-FC1 coupled to GGFG-DXd) (Fc fusion, GGFG-DXd coupled to cysteine thiols after TCEP reduction; DAR 4; positions not given) QVQLVESGGGLVQPGGSLSLSCTASETISSTYIMGWHRRSPGKERELVAVISGDGVTHYADFVKGRFVISRDNAKNAVYLKMNFLTPEDTAVYYCYAAGRWNHWGQGTQVTVSSEPKSSDKTHTCPPCPAPEFEGGPSVFLFPPKPKDTLMISRTPEVTCVVVDVSHEDPEVKFNWYVDGVEVHNAKTKPREEQYNSTYRVVSVLTVLHQDWLNGKEYKCKVSNKALPASIEKTISKAKGQPREPQVYTLPPSRDELTKNQVSLTCLVKGFYPSDIAVEWESNGQPENNYKTTPPVLDSDGSFFLYSKLTVDKSRWQQGNVFSCSVMHEALHNHYTQKSLSLSPGK
– | – | – | – | – | 28.8 ng/mL | 32.6 ng/mL | 24.3 ng/mL | – | – | 4-E04-FC1-MMAE (4-E04-FC1 coupled to mc-vc-MMAE) (Fc fusion, mc-vc-MMAE coupled to cysteine thiols after TCEP reduction; the coupling did not complete and the proportion of coupling products was very low; positions not given) AVQLVESGGGLVQPGGSLSLSCAASEMISSTYIMGWYRRSPGKERELVAVISGDGVTHYGDFVKGRFAISRDNVKNAVYLKMNFLTPEDTAVYYCNAAGRRNHWGQGTQVTVSSEPKSSDKTHTCPPCPAPEFEGGPSVFLFPPKPKDTLMISRTPEVTCVVVDVSHEDPEVKFNWYVDGVEVHNAKTKPREEQYNSTYRVVSVLTVLHQDWLNGKEYKCKVSNKALPASIEKTISKAKGQPREPQVYTLPPSRDELTKNQVSLTCLVKGFYPSDIAVEWESNGQPENNYKTTPPVLDSDGSFFLYSKLTVDKSRWQQGNVFSCSVMHEALHNHYTQKSLSLSPGK
– | – | – | – | – | – | – | – | 130 ng/mL | 7.04 nM | 4-E04-FC1 (chimeric nanobody: 4-E04 VHH fused with human Fc mutant fragment FC1) (Fc fusion, built from the VHH and FC1) AVQLVESGGGLVQPGGSLSLSCAASEMISSTYIMGWYRRSPGKERELVAVISGDGVTHYGDFVKGRFAISRDNVKNAVYLKMNFLTPEDTAVYYCNAAGRRNHWGQGTQVTVSSEPKSSDKTHTCPPCPAPEFEGGPSVFLFPPKPKDTLMISRTPEVTCVVVDVSHEDPEVKFNWYVDGVEVHNAKTKPREEQYNSTYRVVSVLTVLHQDWLNGKEYKCKVSNKALPASIEKTISKAKGQPREPQVYTLPPSRDELTKNQVSLTCLVKGFYPSDIAVEWESNGQPENNYKTTPPVLDSDGSFFLYSKLTVDKSRWQQGNVFSCSVMHEALHNHYTQKSLSLSPGK
– | – | – | – | – | 5 ng/mL | 26 ng/mL | 12 ng/mL | – | – | 5-C12-FC1-MMAE (5-C12-FC1 coupled to mc-vc-MMAE) (Fc fusion, mc-vc-MMAE coupled to cysteine thiols after TCEP reduction; DAR4 about 66.2% and DAR2 about 21.9% by HIC; positions not given) QVQLVESGGGLAQAGGSLRLSCAGSGRTFSTDAMGWFRQAPGKEREFVAAINWSGGSTYYADSVKGRFTISRDNAKNTVYLQMNSVKPEDTAVYYCVADSLLALLDGSRGGPGTDSDSWGQGTQVTVSSEPKSSDKTHTCPPCPAPEFEGGPSVFLFPPKPKDTLMISRTPEVTCVVVDVSHEDPEVKFNWYVDGVEVHNAKTKPREEQYNSTYRVVSVLTVLHQDWLNGKEYKCKVSNKALPASIEKTISKAKGQPREPQVYTLPPSRDELTKNQVSLTCLVKGFYPSDIAVEWESNGQPENNYKTTPPVLDSDGSFFLYSKLTVDKSRWQQGNVFSCSVMHEALHNHYTQKSLSLSPGK
